The values below come from patent US20170052184A1 (published 2017).

T1: HCV bt-134-154 (Peptide 1, HCVc 134-154) (Hepatitis C virus (numbering per HCV-1), biotin (carboxy-terminal per; N-terminal per))
T1 peptide: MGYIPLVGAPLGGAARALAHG

T2: HCV bt-141-161 (Peptide 2, HCVc 141-161) (Hepatitis C virus (numbering per HCV-1), biotin (carboxy-terminal per; N-terminal per))
T2 peptide: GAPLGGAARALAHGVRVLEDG

T3: HCV bt-151-171 (Peptide 3, HCVc 151-171) (Hepatitis C virus (numbering per HCV-1), biotin (carboxy-terminal per; N-terminal per))
T3 peptide: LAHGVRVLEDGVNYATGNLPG

B1: HCV 208A-422 (antibody, V domains shown)
VH: DVQLQESGPGLVNPSQSLSLTCSVTGYSITSGYYWIWIQQSPGNKLEWMGYIKYDGGNNYSPSLKNRISIARDTSKNQCFLKLNSVTIEDTATYYCTRGSDSFDYWGQGTTLTVSS
VL: DIVLTQSPASLAVSLGQRAIISCKASQSVSFAGTNLMHWYQQKPGQQPKLLIYRASNLETGVPTRFSGSGSRTDFTLNIHPVEEDDAATYYCQQSREYYTFGGGTKLEIKR
B2: HCV 208A-442 (antibody, V domains shown)
VH: B1 VH with Q39R, S41F, C79F
VL: B1 VL
B3: HCV 208A-638 (antibody, V domains shown)
VH: QGQLQQPGAEFVKPGASLKLSCRASGYTFTSYWIHWVKQRPGQGLEWIGEVDPSDSYINQNEKFRGKATLTVDKSSSTAYMQLGSLTSEDSAVYYCARHYYGVLDSWGQGTALTVSS
VL: QIVLTQSPTIMSASLGERVTMTCTASSSVSSSYLHWFQQKPGSSPKLWIYSTSNLASGVPPRFSGSGSGTSYSLSISSVEAEDVATYYCLQFHRSPWTFGGGAKLEIKR
B4: HCV 208A-352 (antibody, V domains shown)
VH: QGQMQQSGAELVKPGASVKLSCKTSGFTFSSSFISWLKQKPGQSLEWIAWIYAGTGNTNYNQKFTDKAQLTVDTSSSTAYMQFSSLTTEDSAIYYCAISGTGFTYWGQGTLVTVSA
VL: DVLMAQTPLSLPVTLGDQASISCRSSQSLVHSNGNTYLEWFLQKPGQSPKLLIYNVSNRFSGVPDRFSGSGSGTDFTLKISRVEAEDLGVYYCFQGSHVPLTFGSGTKLEIKR
B5: HCV 208B-1024 (antibody, V domains shown)
VH: EVQLVESGGDLVKPGGSLKLSCAASGFTFSNYGMSWVRQTPDKRLEWVATISSGGSYSYYPDSVKGRFTISRDNAKNILYLQMSSLKSEDTAMYYCASLYYGYGDYWGQGTAFTVSS
VL: B4 VL with A5T, T14S, L29I, F41Y, P45L, N55R, L101W, S105G
B6: HCV 208A-134 (antibody, V domains shown)
VH: B4 VH with V12A, F33Y, F83L
VL: EVLMTQSPLSLPVSLGDQASISCRSSQSLEHTNGNTYLEWFLQRPGQPPKLLIYKVSSRFSGVPDRFSGSGSGTDFTLKISRVEAEDLGVYYCFQGSHVPFTFGSGTKLAIKR
B7: HCV 208B-281 (antibody, V domains shown)
VH: B4 VH with M4L, F33Y, K40R, N57G, T104I
VL: B4 VL with A5T, T14S, S32N, N55K, L101F
B8: HCV 208A-983 (antibody, V domains shown)
VH: B4 VH with F33Y, I34F, N59I, S75A, Y80F, F83L, T88I
VL: B4 VL with A5T, T14N, V30L, L101F, E110A
B9: HCV 208A-334 (antibody, V domains shown)
VH: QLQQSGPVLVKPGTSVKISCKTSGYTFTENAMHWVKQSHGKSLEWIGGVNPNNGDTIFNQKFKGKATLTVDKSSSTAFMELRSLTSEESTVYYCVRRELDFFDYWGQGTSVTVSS
VL: DIVLTQSPASLAVSLGQRATISCRASQSVSTSRYSYMHWYQQKPGQPPKLLIKYASNLESGVPARFSGSGSGTDFTLNIHPVAEEDTAAYYCQHSWGFPFTFGSGTKLEIKR
B10: HCV 208A-557 (antibody, V domains shown)
VH: B4 VH with F33Y, F83L
VL: B9 VL with V3A, K49E, A83G, A89T, G97D
B11: HCV 208A-830 (antibody, V domains shown)
VH: EVRLQQPGPEVEKPGASVKISCKTSGYTFTEYAIHWVKQSHGESLEWIGGINPSNGDPIYNQIFKDKATLTVDRSSNTAYMGLRSLTVGDSGVYFCVRRQLDYFDFWGQGASLTVSS
VL: B9 VL with A25S, M37L, A83G, T87P, A89T, G97E
B12: HCV 208B-560 (antibody, V domains shown)
VH: EVQLQQSGPELEKPGASVKISCKTSGYTFTEYAMHWVKQSHGMSLEWIGGINPSNGNAIYNQIFKDKATLTVDRSSSTAYMGLRSLTFGDSGVYFCVRRQLDFFDYWGQGASLTVSS
VL: B9 VL with L4V, M37L, A83G, A89T, G97E
B13: HCV 208A-222 (antibody, V domains shown)
VH: B12 VH with K19R, M43K, S54N, F103Y
VL: B9 VL with L4V, M37L, A83G, A89T, G97E
B14: HCV 208A-741 (antibody, V domains shown)
VH: QLQQSGPVLVKPGASVMISCKTSGYTFTENAMHWVKQSHGKSLEWIGGVNPNNGDTIFNQKFKGKATLTVDKSSSTAFMELRSLTSEESTVYYCVRRELDFFDYWGQGTSVTVSS
VL: B9 VL with A19T, R24G, Y34F, G97E
B15: HCV 208B-251 (antibody, V domains shown)
VH: B14 VH with M17K, F58Y, T90P, Y93F
VL: B9 VL with Q17K, R18K, Q46H, G97E
B16: HCV 208A-605 (antibody, V domains shown)
VH: B12 VH with M34I
VL: B9 VL with L4V, M37L, A83G, A89T, G97E
B17: HCV 208B-556 (antibody, V domains shown)
VH: B14 VH with L81F
VL: B9 VL with A89T, G97E
B18: HCV 208A-877 (antibody, V domains shown)
VH: QLQQSGPELVKPGASVKISCKTSGYTFTENAMHWVKQSRGKSLEWIGGVNPNNGDTVYTQKFKGKATLTVAKSSSTAYMELRTMTCEESTVYYCASREPDFFDYWGQGSSVTVSS
VL: QIVLTQSPAIMSVSPGEKVSMTCSASSSVTYMHWYQQKSGTSPKRWIYDTSELASGVPARFSGSGSGTTYSLTISSMEAEDAATYYCQQWSNKPLTFGAGTKLELKR
B19: HCV 208B-174 (antibody, V domains shown)
VH: EVKLEESGGGLVQPGGSMKLSCVASGFSFSSYWMSWVRQSPEKGLDWVAEIRLRSDNYATHYAESVKGRFTISRDDSISRLYLQMNTLRAEDTGIYYCTWMTYWGQGTLVTVSA
VL: QNVLTQSPAIMSASPGEKVTMSCSASSSVTYMFWYQLKPESSPRLLIYDTSNLASGVPVRFSGSGSGTSYSLTISRMEAEDAATYYCQEWSSYPLTFGAGTKLDLKR
B20: HCV 208A-874 (antibody, V domains shown)
VH: QVQLQQPGAELVKPGASVKLSCKASGYTLSSYWMHWVKQRPGQGLEWIGEIHPSDSYTSYNQKFKDKATLTVDKSSSTAYMQLSSLTSEDSAVYYCARGGYYRYDEFAYWGQGTLVTVSA
VL: DIVMTQSHKFMSTSIGDRVSITCKASQNVSPAVAWYQQKPGQSPKLLIYSASSRYTGVPDRFTGSGSGTAFTFTISSVQAEDLAVYFCQQHFSTPWTFGGGTMLEIKR
B21: HCV 208B-589 (antibody, V domains shown)
VH: QVQLQQSGAGLAKPGASVKMSCKASGYTFTANKMHWAKQRPGQGLEWIGYIDPSSGYTEYNHKIQDKATLTADTSSSTAYMQLSSLTFEDSAVYYCTNFAYWGQGTLVTVSA
VL: DIVMTQTPLTLSVTIGQPASISCKSSQSLLFTNGKTYLNWFLQRPGQSPKRLIYLLSKLDSGVPDRFSGSGSGTDFTLKISRVEAEDLGVYYCLQSTYFPLTFGAGTKLELKR

Numbering of substitutions follows the chain as printed.

For the first experiment, the target named is T1, HCV bt-134-154 (Peptide 1, HCVc 134-154). Put plainly: EIA, captured mAb + biotin peptide.
On to B1, for which the “Reactivity (OD 492 nm)” value turned out to be 0.05 OD units.
For the molecule B2, the “Reactivity (OD 492 nm)” value is 0.08 OD units.
With B3, the “Reactivity (OD 492 nm)” value was 0.07 OD units.
Consider B4, for which the “Reactivity (OD 492 nm)” value was found to be 1.08 OD units.
B5: the “Reactivity (OD 492 nm)” value was 0.08 OD units.
In the case of B6, the “Reactivity (OD 492 nm)” value was determined as 2.06 OD units.
The same measure, in the same setting: the figure for B7 is 1.48 OD units.
Take B8: the “Reactivity (OD 492 nm)” value turned out to be 3.03 OD units.
With B9, the “Reactivity (OD 492 nm)” value was 0.05 OD units.
Take B10: the “Reactivity (OD 492 nm)” value amounted to 0.05 OD units.
With B11, the “Reactivity (OD 492 nm)” value was 0.07 OD units.
On to B12, for which the “Reactivity (OD 492 nm)” value was 0.11 OD units.
On the same count and under the same terms, the figure for B13 is 0.06 OD units.
Turning to B14, the “Reactivity (OD 492 nm)” value was found to be 1.2 OD units.
B15: the “Reactivity (OD 492 nm)” value turned out to be 0.11 OD units.
B16: the “Reactivity (OD 492 nm)” value stood at 0.22 OD units.
On to B17, for which the “Reactivity (OD 492 nm)” value amounted to 0.13 OD units.
In the case of B18, the “Reactivity (OD 492 nm)” value worked out at 0.06 OD units.
Still for that read-out and setting: the figure for B19 is 0.08 OD units; for B20 it is 0.05 OD units; for B21 it is 0.27 OD units.

The target of a further experiment is T2, HCV bt-141-161 (Peptide 2, HCVc 141-161). Description: EIA, captured mAb + biotin peptide.
On to B1, for which the “Reactivity (OD 492 nm)” value was 0.84 OD units.
Still for that read-out and setting: the value for B2 was 3.04 OD units; that for B3 was 2.96 OD units; that for B4 was 0.07 OD units.
As for B5, the “Reactivity (OD 492 nm)” value is 0.75 OD units.
On to B6, for which the “Reactivity (OD 492 nm)” value turned out to be 0.08 OD units.
With B7, the “Reactivity (OD 492 nm)” value came to 0.16 OD units.
As for B8, the “Reactivity (OD 492 nm)” value was determined as 0.4 OD units.
Consider B9, for which the “Reactivity (OD 492 nm)” value is 3.07 OD units.
The same measure, in the same setting: the figure for B10 is 2.41 OD units.
In the case of B11, the “Reactivity (OD 492 nm)” value stood at 2.88 OD units.
Take B12: the “Reactivity (OD 492 nm)” value turned out to be 3.9 OD units.
On to B13, for which the “Reactivity (OD 492 nm)” value amounted to 2.7 OD units.
Same read-out and setting: the value for B14 was 3.37 OD units; that for B15 was 2.35 OD units; that for B16 was 3.71 OD units.
Take B17: the “Reactivity (OD 492 nm)” value turned out to be 3.07 OD units.
Turning to B18, the “Reactivity (OD 492 nm)” value is 1.21 OD units.
As to B19, the “Reactivity (OD 492 nm)” value came out at 1.26 OD units.
Still for that read-out and setting: the value for B20 was 0.73 OD units; that for B21 was 0.1 OD units.

The next experiment concerns the target T3, HCV bt-151-171 (Peptide 3, HCVc 151-171). Description: EIA, captured mAb + biotin peptide.
As for B1, the “Reactivity (OD 492 nm)” value stood at 0.1 OD units.
Regarding B2, the “Reactivity (OD 492 nm)” value was 0.06 OD units.
Turning to B3, the “Reactivity (OD 492 nm)” value came out at 0.09 OD units.
For the molecule B4, the “Reactivity (OD 492 nm)” value was determined as 0.06 OD units.
Turning to B5, the “Reactivity (OD 492 nm)” value came to 0.15 OD units.
Still for that read-out and setting: the figure for B6 is 0.06 OD units.
Still for that read-out and setting: the figure for B7 is 0.12 OD units.
Turning to B8, the “Reactivity (OD 492 nm)” value was determined as 0.05 OD units.
With B9, the “Reactivity (OD 492 nm)” value stood at 0.05 OD units.
B10: the “Reactivity (OD 492 nm)” value turned out to be 0.06 OD units.
With B11, the “Reactivity (OD 492 nm)” value came out at 0.08 OD units.
Regarding B12, the “Reactivity (OD 492 nm)” value is 0.14 OD units.
Regarding B13, the “Reactivity (OD 492 nm)” value is 0.08 OD units.
For B14, the “Reactivity (OD 492 nm)” value stood at 0.06 OD units.
The same measure, in the same setting: the value for B15 was 0.41 OD units.
The same measure, in the same setting: the value for B16 was 0.16 OD units; that for B17 was 0.18 OD units; that for B18 was 0.05 OD units.
For B19, the “Reactivity (OD 492 nm)” value amounted to 0.07 OD units.
With B20, the “Reactivity (OD 492 nm)” value came to 0.06 OD units.
In the case of B21, the “Reactivity (OD 492 nm)” value amounted to 2.85 OD units.
